This series concerns the molecule itself. Nature of the series: SEC-MALS. A general note: In gel filtration, larger molecules generally elute earlier.

In general, stoichiometry N refers to a count of units in the complex or per binding partner.

B1: Full-length human dehydrodolichyl diphosphate synthase (DHDDS) (enzyme, UniProt Q86SQ9 1-333, looked up)
chain: MSWIKEGELSLWERFCANIIKAGPMPKHIAFIMDGNRRYAKKCQVERQEGHSQGFNKLAETLRWCLNLGILEVTVYAFSIENFKRSKSEVDGLMDLARQKFSRLMEEKEKLQKHGVCIRVLGDLHLLPLDLQELIAQAVQATKNYNKCFLNVCFAYTSRHEISNAVREMAWGVEQGLLDPSDISESLLDKCLYTNRSPHPDILIRTSGEVRLSDFLLWQTSHSCLVFQPVLWPEYTFWNLFEAILQFQMNHSVLQKARDMYAEERKRQQLERDQATVTEQLLREGLQASGDAQLRRTRLHKLSARREERVQGFLQALELKRADWLARLGTASA
Turning to B1, the “stoichiometry N” value amounted to 2.
